The source of these data is the DeepSol protein solubility set.

The data set in a line: soluble on expression in E. coli; label from the status in PepcDB or PDB records.
Regarding “ANRHPAKVVSTRYFPQARVMELVLAPSNNGQGKPWQGHKAGQFAYVRFGNEDPHPFTIVSGEHEPEVRFLIKELGDFTTDLYHRVKIGEEVMVEGPYGRLA”, the “soluble on expression in E. coli” value was “not soluble”.

Regarding “ANSFLEEMKKGHLERECMEETCSYEEAREVFEDSDKTNEFWNKYKDGDQCETSPCQNQGKCKDGLGEYTCTCLEGFEGKNCELFTRKLCSLDNGDCDQFCHEEQNSVVCSCARGYTLADNGKACIPTGPYPCGKQTLE”, the “soluble on expression in E. coli” value is recorded as “soluble”.

As to “APLAHCDGRGGLKLSQDMDTCEDILPCVPFSVAKSVKSLYLGRMFSGTPVIRLRFKRLQPTRLVAEFDFRTFDPEGILLFAGGHQDSTWIVLALRAGRLELQLRYNGVGRVTSSGPVINHGMWQTISVEELARNLVIKVNRDAVMKIAVAGDLFQPERGLYHLNLTVGGIPFHEKDLVQPINPRLDGCMRSWNWLNGEDTTIQETVKVNTRMQCFSVTERGSFYPGSGFAFYSLDYMRTPLDVGTESTWEVEVVAHIRPAADTGVLFALWAPDLRAVPLSVALVDYHSTKKLKKQLVVLAVEHTALALMEIKVCDGQEHVVTVSLRDGEATLEVDGTRGQSEVSAAQLQERLAVLERHLRSPVLTFAGGLPDVPVTSAPVTAFYRGCMTLEVNRRLLDLDEAAYKHSDITAHSCPPVEPAAA”, the “soluble on expression in E. coli” value is given as “soluble”. Next, “APQVVDKVAAVVNNGVVLESDVDGLMQSVKLNAAQARQQLPDDATLRHQIMERLIMDQIILQMGQKMGVKISDEQLDQAIANIAKQNNMTLDQMRSRLAYDGLNYNTYRNQIRKEMIISEVRNNEVRRRITILPQEVESLAQQVGNQNDASTELNLSHILIPLPENPTSDQVNEAESQARAIVDQARNGADFGKLAIAHSADQQALNGGQMGWGRIQELPGIFAQALSTAKKGDIVGPIRSGVGFHILKVNDLRGESKNISAAQKDRAYRMLMNRKFSEEAASWMQEQRASAYVKILSN”: “soluble”.

For “AQPKETILSIKDLVVKESRGLDAVKNLSLDVRAGEVVGIAGIDGNGQTELIQALAGLTKVENGSIHLNEKEITNRKPREITEMGVAHVPEDRHKYGLVLEMTLAENIGLQTYYQKPYSSTGILNYRMINKHARELIEEYDVRTPNELVPARALSGGNQQKAIIAREVDRDPDLLIVSQPTRGLDVGAIEYIHRRLIEQRDKNKAVLLVSFELDEILNVSDRIAVIHAGEIVGIVDPKETTENELGLLMAGYSLEEARAELSKVEAGETVE”, the “soluble on expression in E. coli” value is “not soluble”. The result for “AQQAEWRSWEVNKRLEYSLVKGITEFIEQDTEEARQQATRPCEVIEGPLMDGMNVVGDLFGEGKMFLPQVVKSARVMKQAVAYLEPFIEASKEQCKTNGKMVIATVKGDVHDIGKNIVGVVLQCNNYEIVDLGVMVPAEKILRTAKEVNADLIGLSGLITPSLDEMVNVAKEMERQGFTIPLLIGGATTSKAHTAVKIEQNYSGPTVYVQNASRTVGVVAALLSDTQRDDFVARTRKEYETVRIQHGRKKPRTPPVTLEAARDNDFAFDWQAYTPPVAHRLGVQEVEASIETLRNYIDWTPFFMTWSLAGKYPRILEDEVVGVEAQRLFKDANDMLDKLSAEKTLNPRGVVGLFPANRVGDDIEIYRDETRTHVINVSHHLRQQTEKTGFANYCLADFVAPKLSGKADYIGAFAVTGGLEEDALADAFEAQHDDYNKIMVKALADRLAEAFAEYLHERVRKVYWGYAPNENLSNEELIRENYQGIRPAPGYPACPEHTEKATIWELLEVEKHTGMKLTESFAMWPGASVSGWYFSHPDSKYYAVAQIQRDQVEDYARRKGMSVTEVERWLAPNLGYDAD” reads “soluble”; that for “AQRDVLAVLPQLNAVQNLAGDAPSWAEGYGLYQGDMLGEESASVYRKLLIAVFAPRLVTRIEEQLRSGGSSDFLYEGLKAYLMLGSPDHYDADFIKAWISLDWERNLPRDLSPEQRQALHAHLDALLERRPPSARLDQDLVEDLRRQLQQLPVAQRVYDRVKRQRLPKDVPDFRISDAAGRDAPLVFARKSGKPLTDPLSGFFTYRGYREVFLTASLSQAGTIAEEQWVLGRDLNDAGDAANLALDVRRLYFQDYLRQWDDLLADLTVVPITNVTQAADVLRILSGPTSPFRKLLEAVARETDLQKGDRLVAAQVKKAADGTVDKLKQRLGSLVGQEEEG”, “not soluble”. The result for “AQSRTLLAGIVQQQQQLLDVVKRQQELLRLTVWGTKNLQTRVTAIEKYLKDQAQLNAWGAAFRQVAHTTVPWPNASLTPKWNNETWQEWERKVDFLEENITALLEEAQIQQEKNMYELQKLNS” reads “soluble”. Next, “ASSKNLSETLFQNHKQAKETSSLTQYMPSSLELLDTRREQSSQAWYRNLRRLQWIWQGVDPVEQEEILARIASSKHSRTHDEWLDTVMGYRSGNWTYEWTRVGMLHQKQAAERQGEEAADQMFAAALYYSIAGYPHLRNDNLALQAQVLANNAYQEAAKLTGFVVKRLEFSYQNKKIAGYLHLRNTDSPKPVVLVSAGLDSLQTDMWRLFRDYLAKRDIAMLTIDMPSLGASSHWPLTEDSSCLHQAVLNQLADLPWVDHFRIGLIGFRFGGNAMARLAFLESDKVKACVSLGAPIHDIFTSPNKLAAMPKMYLDVLASRLGKNVVDVRSLSGQLMAWSLKVQGFMSGRRTKTPILALGLEGDPVSPYSDNQLVALFSQGGQAKKVKSKTISQGYEQSLDLAINWLEDELC”: “not soluble”. Consider “ATFSKLLYRHRQFYTQFPWVEDKIREVCHHLDVSEELLPTGERLSSRRLRTIGIDLGRSSGFYSLAYLFEDPFVNIHGEKRLRPDFLVDVGQRVSFAGAPLYAAIHESIYGGIGGTTTNWSAHRIREEFPGCEENADPRSAEPFYLTGEHIFPWQFDEDPALQPYKAAAEQLATTQWEHSPYDAEVLKEQAAVTAACVYLDDAFVPFELSMDTAHTYRDLRLHVTNRFQHDGIRWDGAGILSTLRDKVLDH”, for which the “soluble on expression in E. coli” value is recorded as “not soluble”. In the case of “ATKQAIEKDPWLSPEQKKAQKEKAKARLDEGLKALKAADSLEILKVTEEAFVDKEKNPDSIPNQHKAGTADQARKQALDSL”, the “soluble on expression in E. coli” value is “not soluble”. The result for “AVPIAQKSEPHSLSSEALMRRAVSLVTDSTSTFLSQTTYALIEAITEYTKAVYTLTSLYRQYTSLLGKMNSEEEDEVWQVIIGARAEMTSKHQEYLKLETTWMTAVGLSEMAAEAAYQTGADQASITARNHIQLVKLQVEEVHQLSRKAETKLAEAQIEELKQKTQEEGEERAESEQEAYLRED” reads “soluble”. The result for “AVPTVVGIPDGTAVVGRSFRVSIPTDLIASSGEIIKVSAAGKEALPSWLHWDPHSHILEGLPLDTDKGVHYISVSAARLGANGSHVPQTSSVFSIEVYPEDHNEPQSVRAASSDPGEVVPSACAADEPVTVLTVILDADLTKMTPKQRIDLLNRMQSFSEVELHNMKLVPVVNNRLFDMSAFMAGPGNAKKVVENGALLSWKLGCSLNQNSVPDIRGVETPAREGAMSAQLGYPVVGWHIANKKPT” reads “soluble”. The result for “AWPEGQALGPGMPLPEPSEQEGESVKAGQEPSPKPGTDVIPAAPRKPREFSKLVLLTASDQDEDGVGSKPQEVHCVLSLEMAGPATLASTLQILPVEEQGGVVQPALEMPEQKCSKLDAAPQSLEFLRTPFGGRLLVLESFLYKQEKAVGDKVYWKCRQHAELGCRGRAITRGLRATVMRGHCHAPDEQGLEARRQREKLPSLALPEGLGEPQGPEGPGGRVEEPLEGVGPWQCPEEPEPTPGLVLSKPALEEEEAPRALSLLSLPPKKRSILGLGQARPLEFLRTCYGGSFLVHESFLYKREKAVGDKVYWTCRDHALHGCRSRAITQGQRVTVMRGHCHQPDMEGLEARRQQEKAVETLQAGQDGPGSQVDTLLRGVDSLLYRRGPGPLTLTRPRPRKRAKVEDQELPTQPEAPDEHQDMDADPGGPEFLKTPLGGSFLVYESFLYRREKAAGEKVYWTCRDQARMGCRSRAITQGRRVTVMRGHCHPPDLGGLEALRQREKRPNTAQRGSPGGPEFLKTPLGGSFLVYESFLYRREKAAGEKVYWTCRDQARMGCRSRAITQGRRVMVMRRHCHPPDLGGLEALRQREHFPNLAQWDSPDPLRPLEFLRTSLGGRFLVHESFLYRKEKAAGEKVYWMCRDQARLGCRSRAITQGHRIMVMRSHCHQPDLAGLEALRQRERLPTTAQQEDPEKIQVQLCFKTCSPESQQIYGDIKDVRLDGESQ” reads “soluble”.

With “AYESIQVTSAQKHVLHVQLNRPEKRNAMNRAFWRELVECFQKISKDSDCRAVVVSGAGKMFTSGIDLMDMASDILQPPGDDVARIAWYLRDLISRYQKTFTVIEKCPKPVIAAIHGGCIGGGVDLISACDIRYCTQDAFFQVKEVDVGLAADVGTLQRLPKVIGNRSLVNELTFTARKMMADEALDSGLVSRVFPDKDVMLNAAFALAADISSKSPVAVQGSKINLIYSRDHSVDESLDYMATWNMSMLQTQDIIKSVQAAMEKKDSKSITFSKL”, the “soluble on expression in E. coli” value was “soluble”.

Take “CPRLIRFVMEEDYANLPPLRRFLRRAGVIPISASNRSSIRRAFNDVEEALNEGHIVCIFPEGRLTSDGEMNDFMRGIDIILRRSPVPVIPMALKGLWGSYFSRAKGRACRGFPTRFWSKLEIEAGEPVDPSSATAQTMFEKVHALRGDWR”: the “soluble on expression in E. coli” value was “not soluble”. The result for “CVIFPVEIDVSQTIIRDCQVDKQTRELVYINKIMNTQLTKPVLMMFNISGPIRSVTRKNNNLRDRIKSKVDEQFDQLERDYSDQMDGFHDSIKYFKDEHYSVSCQNGSVLKSKFAKILKSHDYTDKKSIEAYEKYCLPKLVDERNDYYVAVCVLKPGFENGSNQVLSFEYNPIGNKVIVPFAHEINDTGLYEYDVVAYVDSVQFDGEQFEEFVQSLILPSSFKNSEKVLYYNEASKNKSMIYKALEFTTESSWGKSEKYNWKIFCNGFIYDKKSKVLYVKLHNVTSALNKNVILNTIKA” reads “soluble”; that for “DAGGGVGKELVDLKIIWNKTKHDVKVPLDSTGSELKQKIHSITGLPPAMQKVMYKGLVPEDKTLREIKVTSGAKIMVVGSTI”, “soluble”; that for “DDIDYANAEYYLGNTYDLVILDTVDNFQPINIGRLVDLARGGGLIIIYTNNLIKDKTFRTSIMRNGLILDEYEKRFKRKLYEHEGIFIIDVNEYIPKPFSGNTM”, “not soluble”. On to “DDNERLSKVEKARQLREQVNDLFSRKFGEAIGMGFPVKVPYRKITINPGCVVVDGMPPGVSFKAPSYLEISSMRRILDSAEFIKFTVIRPFPGLVINNQLV”, for which the “soluble on expression in E. coli” value is on record as “soluble”. Next, “DEGPLMMNAFEMITLSQGLNLSALFDRRQDFVKRQTRFVSRREPSEIIANIEAVANSMGFKSHTRNFKTRLEGLSSIKAGQLAVVIEIYEVAPSLFMVDVRKAAGETLEYHKFYKKLCSKLENIIWRATEGIPKSEILRTITF”: “soluble”. As for “DERVFEQELENGLRLFIIPKPGFQKTFVTYTTQFGSLDNQFKPLGQDQFVTVPDGVAHFLEHKLFEKEEEDLFTAFAEDNAQANAFTSFDRTSYLFSATDNIENNIKRLLTMVETPYFTKETVDKEKGIIAEEIKMYQEQPGYKLMFNTLRAMYQRHPIRVDIAGSVESIYDITKDDLYLCYETFYHPSNMVLFVVGDVNPEEICRIVKQHEDARNKVNQPKIER”, the “soluble on expression in E. coli” value is recorded as “not soluble”. Next, “DGDYIKDAVKEINYFMRDWRVDQVKSMDLRTVDIMAAAHNLMDVNEPYMLLSGYRSPQTNAMLRSRSRGVARNSLHMQGQAADLRLASRSVSQMANAAIACRAGGVGKYYRSNFVHMDCGEVRSWGG”: “not soluble”. Turning to “DGSFQGSVFVAVDIGERKRTEQALRENEQHLKNILDSIHAGILVIDPQDHRIVDANTFALDMIGAPKGLVVDRICHNFVCSAVQGACPITDLLENMDNSERRLLRFDGTSIPILKSVVPVTYQGRKLLIESFID”, the “soluble on expression in E. coli” value is given as “not soluble”.
